Data published in patent US20220249679A1 (Mitsubishi Tanabe Pharma Corporation, priority 2018, published 2022).
Positions count from the first letter of the chain named.

Experiments:
Human CD138 His = target: T1, Human CD138 His (Homo sapiens, UniProt P18827); assay: SPR kinetic binding, human CD138; conditions: bivalent analyte fit
T1 construct: His
T1 sequence (P18827 23-310): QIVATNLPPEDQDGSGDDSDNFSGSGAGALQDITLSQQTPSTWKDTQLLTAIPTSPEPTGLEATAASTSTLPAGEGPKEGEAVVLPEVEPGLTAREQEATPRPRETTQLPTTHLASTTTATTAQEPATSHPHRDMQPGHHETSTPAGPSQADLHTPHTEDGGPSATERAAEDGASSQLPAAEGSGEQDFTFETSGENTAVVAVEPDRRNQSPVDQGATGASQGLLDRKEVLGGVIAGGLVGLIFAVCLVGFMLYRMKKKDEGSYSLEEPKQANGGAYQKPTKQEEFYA
Protocol: Murine IgGs were purified from the hybridoma supernatants and the IgGs were subject to SPR (surface plasmon resonance) for kinetic binding measurements. Human or mouse CD138 His was immobilized on a GLM chip at […] on a BioRad Proteon. […] KDs were measured using bivalent analyte fit.

human CD138 = target: T2, human CD138 (Homo sapiens, UniProt P18827); assay: FACS binding to Expi293 cells transfected with human CD138; conditions: 3-fold dilutions from 33.3 μg/mL
T2 sequence (P18827 23-310): T1 sequence (P18827 23-310)
Protocol: (§1) 12P16F6 hIgG1 or 13P30A7 hIgG1 were tested for cross-reactivity to cynomolgus monkey CD138. Antibodies that cross-react with CD138 from cynomolgus monkey (cyno) have an advantage that they can be tested for toxicity in this strain of non-human primate prior to conducting efficacy trials. Briefly, a vector directing the cell-surface expression of human CD138 or cyno CD138 was transfected in Expi293 cells. Binding of 12P16F6 hIgG1 and 13P30A7 hIgG1 to transfected Expi293 cells was tested at 3-fold dilutions starting at 33.3 μg/mL.

cyno CD138 = assay: FACS binding to Expi293 cells transfected with cyno CD138; parameters: species or system cynomolgus monkey; conditions: 3-fold dilutions from 33.3 μg/mL
Protocol: as §1

cyno CD138, sequence (as listed by the source): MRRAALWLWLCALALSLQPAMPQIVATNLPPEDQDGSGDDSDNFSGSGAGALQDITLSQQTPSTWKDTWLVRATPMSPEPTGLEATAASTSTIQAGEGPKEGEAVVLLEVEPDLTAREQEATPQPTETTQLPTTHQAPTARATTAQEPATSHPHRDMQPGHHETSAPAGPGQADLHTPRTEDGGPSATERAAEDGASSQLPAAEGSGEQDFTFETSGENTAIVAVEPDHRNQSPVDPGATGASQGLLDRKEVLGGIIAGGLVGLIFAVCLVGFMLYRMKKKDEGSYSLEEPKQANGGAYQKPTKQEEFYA

B1: F11AP11E5: murine anti-CD138 hybridoma antibody; VH SEQ ID NO:87, VL SEQ ID NO:39 (antibody, listed as Mus musculus, V domains shown)
VH: QVQLQQSGAELVKPGASVKLSCKASGYTFTNYYMYWVKQRPGQGLEWIGEINPGNGGTNFNEKFKNKATLTVDKSSSTAYMQLSSLTSEDSAVYYCTTRFAYWGQGTLVIVSA
VL: DVVMTQTPLSLSVTIGQPASISCKSGQSLLYSNGKTYLTWLQQRPGQAPKLLMYQVSKLDPGIPDRFSGSGSETDFTLKISRVEAEDLGVYYCLQNTYYPHTFGAGTKLELKR
hCD138 ka (Human CD138 His): 128000 M⁻¹ s⁻¹
hCD138 kd (Human CD138 His): 0.0117 s⁻¹

B2: 13P30A7 hIgG1: chimeric antibody: murine variable regions of F13P30A7 (SEQ ID NO:83, 35), constant regions of human IgG1, kappa (antibody, listed as Mus musculus, V domains shown)
VH: EVQLVESGGGLVQPKGSLKLSCAASGFTFNTYAMNWVRQAPGKGLEWIARIRSKSNNYATYYADSVKDRFTISRDDSQSLLYLQMNNLKTEDTAIFYCVTDYGYVYFDAWGAGTTVTVSS
VL: NIIMTQSPKSMAMSVGERVTLSCKASENVGNYVSWYQQKPEQSPKLLIYGASYRYTGVPDRFTGSGSGTDFTLTISSVQAEDLADYHCGQSSRYPLTFGAGTKLELKR
modifications: human IgG1 and kappa constant regions
binding to human CD138 expressing cells (human CD138): specific binding
binding to cynomolgus CD138 expressing cells (cyno CD138): specific binding

B3: F13P30A7: murine anti-CD138 hybridoma antibody; VH SEQ ID NO:83, VL SEQ ID NO:35 (antibody, listed as Mus musculus, V domains shown)
VH: B2 VH
VL: B2 VL
hCD138 ka (Human CD138 His): 238000 M⁻¹ s⁻¹
hCD138 kd (Human CD138 His): 0.00127 s⁻¹

B4: F13P18D8: murine anti-CD138 hybridoma antibody; VH SEQ ID NO:84, VL SEQ ID NO:36 (antibody, listed as Mus musculus, V domains shown)
VH: B2 VH with V5L, K15E, T28A, I48L, S79G, L80M, I95M, F96Y, G103Y, A109V
VL: B2 VL with I3V, A12S, N31T, P40S, E41D, Y53N, G68A, S76T, A80S
hCD138 ka (Human CD138 His): 278000 M⁻¹ s⁻¹
hCD138 kd (Human CD138 His): 0.000523 s⁻¹

B5: F13P14D3: murine anti-CD138 hybridoma antibody; VH SEQ ID NO:86, VL SEQ ID NO:38 (antibody, listed as Mus musculus, V domains shown)
VH: B2 VH with A24T, I48V, A63V, L80T, L81V, Y82H, F96Y, Y104H, A109V
VL: B2 VL with I3V, A12S, E17Q, N31S, Y53N, Y55N, G68A, A100G
hCD138 ka (Human CD138 His): 107000 M⁻¹ s⁻¹
hCD138 kd (Human CD138 His): 0.00104 s⁻¹
